Experimental data published in a protein production outcome set (Wang et al. 2014).

Assay: label from the status in PepcDB records

Sequence	protein production
MSDRKTMWDERYDTTDFVYGREPNAFLAEVVQQIPPGDVLCLAEGEGRNAVFLAKQGHRVLAVDSSAVGLVKAARLAEESGVRIETETADLAEFAIEPVCWDAIVSIFCHVPPQVRRALHRKVVEGLRPGGLFILEAYTPAQLKLRTGGPPTEEVMMTLAGLREELAGLEFLQAREIEREVVEGRFHTGRGAVVQVVARKP	failed
QTEGLETVHIKGQRSYNAIATEKNGDYSSFAATVGTKIPASLREIPQSVSIITNQQVKDRNVDTFDQLARKTPGLRVLSNDDGRSSVYARGYEYSEYNIDGLPAQMQSINGTLPNLFAFDRVEVMRGPSGLFDSSGEMGGIVNLVRKRPTKAFQGHAAAGFGTHKQYKAEADVSGSLNSDGSVRGRVMAQTVGASPRPAEKNNRRETFYAAADWDINPDTVLGAGYLYQQRRLAPYNGLPADANNKLPSLPQHVFVGADWNKFKMHSHDVFADLKHYFGNGGYGKVGMRYSDRKADSNYTFAGSKLNNTGQADVAGLGTDIKQKAFAVDASYSRPFALGNTANEFVIGADYNRLRSTNEQGRSTLSKSVALDGFRALPYNGILQNARAGNKGFNHSVTEENLDETGLYAKTVFRPLEGLSLIAGGRVGHHKIESGDGKTLHKASKTKFTSYAGAVYDIDGSNSLYASASQLYTPQTSIGTDGKLLKPREGNQFEIGYKGSYMDDRLNTRVSFYRMKDKNAAAPLDSNNKKTRYAALGKRVMEGVETEISGAMTPKWQIHAGYSYLHSQIKTASNSRDEGIFLLMPKHSANLWTTYQVTSGLTIGGGVNA	failed
MVVVCASHIQPAIICRFTWLRFLMEIILIRHGKPTSANNPVLNAVDFTKWVRRYNFSDVSTNSRPDSILDEYKSHYIVSSDLERAIHSASIYTGQSPELTSKLYREMEIPRYKFPLRFKAMTWVYINRAFWMLGLKGSFESYRQAKIRAELASDHLVELAREQDKVILFGHGYLNLHIRRSLIKKGWKLNSKSNGFWGISSLEG	failed
MTHVTLRSEFETLIDPYAPVAQVGTGFDFTEGPIWHPIDHYLLFSDMPGDVRRRWDARRGMAEVKRPSNKCNGMTYDAELNLIVCEHATSSLIRERPDGRREVLASHFGGQELNSPNDVCVHSSGAIYFSDPWYGRMPVYGVERPRQLGFQGVYRVMPGGEPKLVVDRNLFDQPNGLCFSPDERLLYVNDTVQALIRVFDVNADGTLSNARVFASSIKSELEPGLPDGMKCDQHGNVWVTAPGGVWVYSPRGELLGKVRVPELVANLAWGGPDFRTLYLTSTHSVYAIPTRVGPRHEPYMSGRRGGAGASAGPAAAAPILTDGEMRLDPQRCAMIIQDLQNDVIMDGGAFDGSGAPAHAKQQHVVENVRRLAEAARARGVAIIHVWFVVEPGAPGVTLNAPLFEGLVDSKAMVRGSWGAAPVSGLEPRPGDFVVEKMRMSAWEGTRLETILKATGRDMIINTGAWTNMSVEHTARTGADKGYFMIVPEDCCSTMNADWHSASINFAMQNVAIVTRADAVIRALG	failed
MSQPNFLLFITDQHRADHLGAYGNSQIRTPALDALARRGWLAERFYVASPICMPNRATLMTGRMPSAHGARHNGIPLSQRATTFVERLRQAGYGTALVGKSHLQNMTGNGPVWPRPQDPPAEGEAWAPEPGDYDQEWGPLWREDPAHDLATPFYGFSQVDLAVDHGDRVWGHYWRWLQREHPEVAAQAGPDHALPAPGFELVRAGQAWRTRVPESCSTTAYLGRRTMQALDGYAQRGQPFFIQCSFPDPHHPFTPPGKYWDMYRPEDVELPASFHASAAAGRQPPPHVQWMYAQRDSGRAVKHTPAMFACTEREAREAIALNYGSISHIDHTVGEVLAHLQRLGLADNTVVIFTSDHGDYLGDHQLLWKGPVHYQSVIRTPFIWADPAGAQGARSDALCSTTDIAPTILARAGLLPYNGIQGADLGALMRGEQAAPREAVLIEEEGQRVMFGFDKRVRMRTLQTGRYRMSVYHGVSWGELYDLREDPLELRNLWDEPGSAALRQDLLFQLAQNLIGHGETSPHPTALA	failed
MRRSFYHYLMTLKGPAKDSETDFANEAAKDIQFPKQTEDYHELSSYLEMNADYLSNMDIFDELWEKYLENNKLEHHHHHH	not failed
MKKIAIFGSAFNPPSLGHKSVIESLSHFDLVLLEPSIAHAWGKNMLDYPIRCKLVDAFIKDMGLSNVQRSDLEQALYQPGQSVTTYALLEKIQEIYPTADITFVIGPDNFFKFAKFYKAEEITERWTVMACPEKVKIRSTDIRNALIEGKDISTYTTPTVSELLLNEGLYR	not failed
MNTFGIFLTISAYTFFSWAYSKKKTPILNPVLLSILLIALILKVGNISYEKYMESARFLSFLLGPAVVSLAIPLYKQINIVKEYKKEIATGIITGGTTAILSAVYILKAFNSPEILQRTIAPKSVTTAIAMGVSEKIGGIPELTAVLVILTGILGNALAPELLDFFKIKDRVARGLATGVSSHGLGTARIILEDELSGAVSGLAMALNGVYTAFLLPLIIELIV	failed
MTTEIKKLDPDTAIDIAYDIFLEMAGENLDPADILLFNLQFEERGGVEFVETADDWEEEIGVLIDPEEYAEVWVGLVNEQDEMDDVFAKFLISHREEDREFHVIWKK	not failed
FRPHFLQAPGDLTVQEGKLCRMDCKVSGLPTPDLSWQLDGKPVRPDSAHKMLVRENGVHSLIIEPVTSRDAGIYTCIATNRAGQNSFSLELVVAAKE	not failed
MNKLKYYCLRYQPYLLGVAFFLAIFLVWAIGRAFGFASLHSLLAGIGVFLLLSAGYVLLLYRGVGQHHNLEGLLRDDADQAVLSAAPADREEVSLLRERLLQGIERLHSNKPRGTSNKDALYALPWYLVIGQPAAGKSTMILQSGLNFPYAEREGVRVAGLGGTRNCDWFFSSEAVLLDTAGRYMNSPEEAGKWRGFLQLLRQHRQRRPLNGLIVSVSIADILHGSVEDQERVAKRLRERIQESCALLEVRLPIYLVFTKCDLIPGFTAFYRQLDDAARGEVMGKTFSHKGYEQADWGQRFSNAMDELTRYWGQMASQQLVQQDIQVTRRNDAAYRFPLELAALKPRLHQFVDSLLRANPYQNAEMLRGFYFTAALQADEAQWGCHGQHVAERFALEHAEGTGTAGSQPAPLFINSLFRKVIIPDQHLVALYTSNHRERRRKAGWVGAAGLAALVLCSLWGWSYLNNRATLASIADELAQAKADDQAASGQYTAWRSLDRLRFWAAHYHEQHHAKGVPLGMRLGLYQGHEVEPLLRDRYFATLQNVMLKPTADNLTRTLYLLTTLKVYQRNTRELQPVSGIDSVEAEALPHDNRAQSIANFGKAALDTYVMLSPGQREHADPAFLKAHLPDYWYPAIARQTGKSMAAAGSEAGGNQDYLYASRQITFYSDQIREPDVPRILDNAFLMSSSRNYIDSLRAQSLRAIETITLESDTLFAFGRADFQSLKNEGQHQLSAIASKLLNTPNIGKIIISGHADQLGDSQGNLQVSKQRAQTIRTYLVGKGVPAELVVAQGEGSRKPLVNCDMQQPRTQLIKCLEPNRRVEIEVRGLN	failed
MKLLNVLLLTTSLSVFYTYAETDYQWLRDDSRSEPAVKQFLAEHNRKTDHWFAPAKPLVQELVNEWQQTSQHKAPPPALIYANQQYNDIQWNGHRHIVKIGAQGQIEPLLNLSARAEPFDYYQLASWSLDRSVQSVALAEDTRGDEQFKLTIVRLADRTEQIVSETASTYFAWAADGKSLYYLSDLNGSTQLQRFELETGQSTRLAEWRSAEWLFSLYSASNPRYLVVQQNNENSTQQRLLDTQTGELMPWLRTTEPGLEYYADVLGETLYINSNHQGAFRLYRQPLHTKQDWQSVTTHKEIGSLSNFYLFDAGIVLVENQTLAPKVWVLDSQGEVRTHFELRDLGQVAWISRNGDAVSNRLRVRTMSMTEPASWHELDVAQLQWQQLSQDHYADFDPKQYQTQTVWVTQGAIQVPVTLAYRSDKLTPNSSVVLYGYGAYGVTMKPYFMPQIVSLLDRGMIYAIAHVRGGGYLGEAWHQAGAGLNKQNGIDDFLAAARYLTHFQQGERAIYTIGGSAGGTLVAAALNQQPNLFAGAVLQVPFVDVLASMSDTSQALTAQQYQEWGNPQQPEQRQVMQAYDPLSNLRAAPYPPTLVNVGWWDNRVPYWEGARYLARLSDVSQGAGPYLLSTDFQAGHASDRRQALEKQAREYAFFLTLDKTRKAGQ	failed
MGDPFGGRFGGFRGSLFGGRDPFDDPFFSRPFEDLLEPSNTFSSGASFSNAHKNNGGRGLTIEELPSDEEVEERKDIGIDDQEHASSVNKPSVEHPEDDSDAERKIQNVNQRSDFNRREGTQSRANTFRHHISKVTYGGIHGAYYTSTRTRRKDGDGMVVEESKEADKTTGEATHRISRGINDKVIDYTVDGHSVTRKLNSSGGVESTQTLHNLDEGPAESTQPYHNLKFFERKLAGF	failed
